Test results taken from doi:10.1101/2024.11.11.622902.
Where “and” joins values, the source holds several entries; their conditions need not be identical. Equal values may be shown once. Read-outs that look alike come from different tables or passages of the source. One block for each substance: values may come before it.

Key:
[1] = molecular target: S-nitrosylated human GAPDH (hGAPDH treated with S-nitrosocysteine, CysNO) (human); experiment: native MS
[2] = molecular target: human glyceraldehyde-3-phosphate dehydrogenase (hGAPDH), wild type (human); experiment: native MS
[3] = molecular target: human glyceraldehyde-3-phosphate dehydrogenase (hGAPDH), wild type (human); experiment: native MS; remark: listed apart in the source
[4] = molecular target: human glyceraldehyde-3-phosphate dehydrogenase (hGAPDH), wild type (human); experiment: SEC
[5] = molecular target: human glyceraldehyde-3-phosphate dehydrogenase (hGAPDH), wild type (human); experiment: SEC; remark: listed apart in the source
[6] = molecular target: porcine glyceraldehyde-3-phosphate dehydrogenase (pGAPDH), wild type (pig (Sus scrofa)); experiment: SEC
[7] = molecular target: porcine glyceraldehyde-3-phosphate dehydrogenase (pGAPDH), wild type (pig (Sus scrofa)); experiment: SEC; remark: listed apart in the source
[8] = molecular target: porcine glyceraldehyde-3-phosphate dehydrogenase (pGAPDH), wild type (pig (Sus scrofa)); experiment: SEC; remark: listed apart in the source
[9] = molecular target: porcine glyceraldehyde-3-phosphate dehydrogenase (pGAPDH), wild type (pig (Sus scrofa)); experiment: SEC; remark: listed apart in the source
[10] = molecular target: porcine glyceraldehyde-3-phosphate dehydrogenase (pGAPDH), wild type (pig (Sus scrofa)); experiment: SEC; remark: listed apart in the source
[11] = molecular target: porcine glyceraldehyde-3-phosphate dehydrogenase (pGAPDH), wild type (pig (Sus scrofa)); experiment: SEC; remark: listed apart in the source

- stoichiometry N [1]: 4
Substance: S-nitrosylated human GAPDH (hGAPDH treated with S-nitrosocysteine, CysNO) (enzyme)

- stoichiometry N [2]: 4
- stoichiometry N [3]: 4
- stoichiometry N [4]: 4
- stoichiometry N [5]: 4
Substance: human glyceraldehyde-3-phosphate dehydrogenase (hGAPDH), wild type (enzyme)

- stoichiometry N [6]: 4
- stoichiometry N [7]: 4 and 2
- stoichiometry N [8]: 2
- stoichiometry N [9]: 4
- stoichiometry N [10]: 4
- stoichiometry N [11]: 4
Substance: porcine glyceraldehyde-3-phosphate dehydrogenase (pGAPDH), wild type (enzyme)
